According to patent US20210221899A1 (published 2021):

Legend:
Assay in all cases: SPR (Biacore T200), 100 nM mAb on NGF chip, similarity to parent mAb
[1] = biological target: T1, rat NGF (rat, UniProt P25427 122-241)
T1 construct: also called rN
Source text: (§1) The region of an antibody responsible for antigen recognition represents the paratope. A paratope is created by a combination of amino acids in the complementarity determining regions (CDRs) of both the heavy and light chain variable regions. The binding between antibody and antigen is often mediated by side chains of CDR residues with side chains or carbohydrate moieties of the antigen. To help define critical side chains involved in antibody recognition alanine scanning mutagenesis was performed on each CDR residue in both the heavy and light chain, the technique as described by Cunningham and Wells (1989) Science, Vol. 244, Issue 4908, pp. 1081-1085. These mutants were then individually tested for the ability to NGF using the Biacore. […] Values were then compared to the wild type antibodies and are represented in the tables as a percent of wild type binding. The data presented in Tables 4 and 5 below are shown as a “percent similarity score” compared to wild type.
(§2) The mean response unit of four replicates of the parent mAb+/−3 standard deviations was used to generate parameters to define a threshold of response units comprising both the on- and off-rates antibody binding. The percentage of data points for each mutant fell within this threshold was then used to define a “% similarity score”. […] Results from substitution of alanine at each CDR position

[2] = biological target: T2, canine NGF (canine, UniProt Q29074 110-229 (pig entry), limits assumed)
T2 construct: The protein was secreted from CHO cells and purified; also called cNGF; canine β-NGF
T2 chain: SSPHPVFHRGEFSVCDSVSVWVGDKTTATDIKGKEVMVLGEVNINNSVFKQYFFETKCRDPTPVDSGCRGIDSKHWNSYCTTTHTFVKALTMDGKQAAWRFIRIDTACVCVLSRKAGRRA
Source text: as §1, §2

[3] = biological target: T3, human NGF (human, UniProt P01138 122-241)
T3 construct: also called human Nerve Growth Factor; hN
T3 chain: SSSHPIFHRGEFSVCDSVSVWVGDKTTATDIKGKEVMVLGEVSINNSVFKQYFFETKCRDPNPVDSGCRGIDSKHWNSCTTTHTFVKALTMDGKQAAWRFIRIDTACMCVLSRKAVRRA
Source text: as §1, §2

T1 sequence (P25427 122-241 limits assumed): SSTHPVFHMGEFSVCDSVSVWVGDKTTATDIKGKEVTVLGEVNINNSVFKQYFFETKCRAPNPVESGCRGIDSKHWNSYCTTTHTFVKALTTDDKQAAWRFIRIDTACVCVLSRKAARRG

B1: can9L12VH_H111A (antibody, V domains shown)
VH: EVQLVESGGDLVKPGGSLRLSCVASGFTFSSHGMHWVRQSPGKGLQWVAVINSGGSSTYYTDAVKGRFTISRDNAKNTVYLQMNSLRAEDTAMYYCAKESVGGWEQLVGPAFDYWGQGTLVIVSS
VL: QSVLTQPTSVSGSLGQRVTISCSGSTNNIGILGASWYQLFPGKAPKLLVYGNGNRPSGVPDRFSGADSGDSVTLTITGLQAEDEADYYCQSFDTTLGAHVFGGGTHLTVL
[1]
  Percent Similarity Score (KD on rN): 3.25%
[2]
  Percent Similarity Score (KD on cN): 10.1%
[3]
  Percent Similarity Score (KD on hN): 2.79%

B2: can9L12VH_S57A (antibody, V domains shown)
VH: EVQLVESGGDLVKPGGSLRLSCVASGFTFSSHGMHWVRQSPGKGLQWVAVINSGGSATYYTDAVKGRFTISRDNAKNTVYLQMNSLRAEDTAMYYCAKESVGGWEQLVGPHFDYWGQGTLVIVSS
VL: QSVLTQPTSVSGSLGQRVTISCSGSTNNIGILGASWYQLFPGKAPKLLVYGNGNRPSGVPDRFSGADSGDSVTLTITGLQAEDEADYYCQSFDTTLGAHVFGGGTHLTVL
[1]
  Percent Similarity Score (KD on rN): 100%
[2]
  Percent Similarity Score (KD on cN): 89.9%
[3]
  Percent Similarity Score (KD on hN): 33.4%

B3: can9L12VH_S30A (antibody, V domains shown)
VH: EVQLVESGGDLVKPGGSLRLSCVASGFTFASHGMHWVRQSPGKGLQWVAVINSGGSSTYYTDAVKGRFTISRDNAKNTVYLQMNSLRAEDTAMYYCAKESVGGWEQLVGPHFDYWGQGTLVIVSS
VL: QSVLTQPTSVSGSLGQRVTISCSGSTNNIGILGASWYQLFPGKAPKLLVYGNGNRPSGVPDRFSGADSGDSVTLTITGLQAEDEADYYCQSFDTTLGAHVFGGGTHLTVL
[1]
  Percent Similarity Score (KD on rN): 99.9%
[2]
  Percent Similarity Score (KD on cN): 94.7%
[3]
  Percent Similarity Score (KD on hN): 31.2%

B4: can9L12VH_L107A (antibody, V domains shown)
VH: EVQLVESGGDLVKPGGSLRLSCVASGFTFSSHGMHWVRQSPGKGLQWVAVINSGGSSTYYTDAVKGRFTISRDNAKNTVYLQMNSLRAEDTAMYYCAKESVGGWEQAVGPHFDYWGQGTLVIVSS
VL: QSVLTQPTSVSGSLGQRVTISCSGSTNNIGILGASWYQLFPGKAPKLLVYGNGNRPSGVPDRFSGADSGDSVTLTITGLQAEDEADYYCQSFDTTLGAHVFGGGTHLTVL
[1]
  Percent Similarity Score (KD on rN): 2%
[2]
  Percent Similarity Score (KD on cN): 5.45%
[3]
  Percent Similarity Score (KD on hN): 1.82%

B5: can9L12VH_S56A (antibody, V domains shown)
VH: EVQLVESGGDLVKPGGSLRLSCVASGFTFSSHGMHWVRQSPGKGLQWVAVINSGGASTYYTDAVKGRFTISRDNAKNTVYLQMNSLRAEDTAMYYCAKESVGGWEQLVGPHFDYWGQGTLVIVSS
VL: QSVLTQPTSVSGSLGQRVTISCSGSTNNIGILGASWYQLFPGKAPKLLVYGNGNRPSGVPDRFSGADSGDSVTLTITGLQAEDEADYYCQSFDTTLGAHVFGGGTHLTVL
[1]
  Percent Similarity Score (KD on rN): 96%
[2]
  Percent Similarity Score (KD on cN): 96.8%
[3]
  Percent Similarity Score (KD on hN): 40.5%

B6: can9L12VH_S31A (antibody, V domains shown)
VH: EVQLVESGGDLVKPGGSLRLSCVASGFTFSAHGMHWVRQSPGKGLQWVAVINSGGSSTYYTDAVKGRFTISRDNAKNTVYLQMNSLRAEDTAMYYCAKESVGGWEQLVGPHFDYWGQGTLVIVSS
VL: QSVLTQPTSVSGSLGQRVTISCSGSTNNIGILGASWYQLFPGKAPKLLVYGNGNRPSGVPDRFSGADSGDSVTLTITGLQAEDEADYYCQSFDTTLGAHVFGGGTHLTVL
[1]
  Percent Similarity Score (KD on rN): 100%
[2]
  Percent Similarity Score (KD on cN): 100%
[3]
  Percent Similarity Score (KD on hN): 99.9%

B7: can9L12VH_Q106A (antibody, V domains shown)
VH: EVQLVESGGDLVKPGGSLRLSCVASGFTFSSHGMHWVRQSPGKGLQWVAVINSGGSSTYYTDAVKGRFTISRDNAKNTVYLQMNSLRAEDTAMYYCAKESVGGWEALVGPHFDYWGQGTLVIVSS
VL: QSVLTQPTSVSGSLGQRVTISCSGSTNNIGILGASWYQLFPGKAPKLLVYGNGNRPSGVPDRFSGADSGDSVTLTITGLQAEDEADYYCQSFDTTLGAHVFGGGTHLTVL
[1]
  Percent Similarity Score (KD on rN): 99.9%
[2]
  Percent Similarity Score (KD on cN): 100%
[3]
  Percent Similarity Score (KD on hN): 100%

B8: can9L12VH_S100A (antibody, V domains shown)
VH: EVQLVESGGDLVKPGGSLRLSCVASGFTFSSHGMHWVRQSPGKGLQWVAVINSGGSSTYYTDAVKGRFTISRDNAKNTVYLQMNSLRAEDTAMYYCAKEAVGGWEQLVGPHFDYWGQGTLVIVSS
VL: QSVLTQPTSVSGSLGQRVTISCSGSTNNIGILGASWYQLFPGKAPKLLVYGNGNRPSGVPDRFSGADSGDSVTLTITGLQAEDEADYYCQSFDTTLGAHVFGGGTHLTVL
[1]
  Percent Similarity Score (KD on rN): 51.6%
[2]
  Percent Similarity Score (KD on cN): 76.2%
[3]
  Percent Similarity Score (KD on hN): 42.1%

B9: can9L12VH_K98A (antibody, V domains shown)
VH: EVQLVESGGDLVKPGGSLRLSCVASGFTFSSHGMHWVRQSPGKGLQWVAVINSGGSSTYYTDAVKGRFTISRDNAKNTVYLQMNSLRAEDTAMYYCAAESVGGWEQLVGPHFDYWGQGTLVIVSS
VL: QSVLTQPTSVSGSLGQRVTISCSGSTNNIGILGASWYQLFPGKAPKLLVYGNGNRPSGVPDRFSGADSGDSVTLTITGLQAEDEADYYCQSFDTTLGAHVFGGGTHLTVL
[1]
  Percent Similarity Score (KD on rN): 7.92%
[2]
  Percent Similarity Score (KD on cN): 22.8%
[3]
  Percent Similarity Score (KD on hN): 8.58%

B10: can9L12VH_T28A (antibody, V domains shown)
VH: EVQLVESGGDLVKPGGSLRLSCVASGFAFSSHGMHWVRQSPGKGLQWVAVINSGGSSTYYTDAVKGRFTISRDNAKNTVYLQMNSLRAEDTAMYYCAKESVGGWEQLVGPHFDYWGQGTLVIVSS
VL: QSVLTQPTSVSGSLGQRVTISCSGSTNNIGILGASWYQLFPGKAPKLLVYGNGNRPSGVPDRFSGADSGDSVTLTITGLQAEDEADYYCQSFDTTLGAHVFGGGTHLTVL
[1]
  Percent Similarity Score (KD on rN): 100%
[2]
  Percent Similarity Score (KD on cN): 100%
[3]
  Percent Similarity Score (KD on hN): 96.6%

B11: can9L12VH_N52A (antibody, V domains shown)
VH: EVQLVESGGDLVKPGGSLRLSCVASGFTFSSHGMHWVRQSPGKGLQWVAVIASGGSSTYYTDAVKGRFTISRDNAKNTVYLQMNSLRAEDTAMYYCAKESVGGWEQLVGPHFDYWGQGTLVIVSS
VL: QSVLTQPTSVSGSLGQRVTISCSGSTNNIGILGASWYQLFPGKAPKLLVYGNGNRPSGVPDRFSGADSGDSVTLTITGLQAEDEADYYCQSFDTTLGAHVFGGGTHLTVL
[1]
  Percent Similarity Score (KD on rN): 19.7%
[2]
  Percent Similarity Score (KD on cN): 85.8%
[3]
  Percent Similarity Score (KD on hN): 38.2%

B12: can9L12VH_P110A (antibody, V domains shown)
VH: EVQLVESGGDLVKPGGSLRLSCVASGFTFSSHGMHWVRQSPGKGLQWVAVINSGGSSTYYTDAVKGRFTISRDNAKNTVYLQMNSLRAEDTAMYYCAKESVGGWEQLVGAHFDYWGQGTLVIVSS
VL: QSVLTQPTSVSGSLGQRVTISCSGSTNNIGILGASWYQLFPGKAPKLLVYGNGNRPSGVPDRFSGADSGDSVTLTITGLQAEDEADYYCQSFDTTLGAHVFGGGTHLTVL
[1]
  Percent Similarity Score (KD on rN): 2.6%
[2]
  Percent Similarity Score (KD on cN): 6.48%
[3]
  Percent Similarity Score (KD on hN): 2.1%

B13: can9L12VH_S53A (antibody, V domains shown)
VH: EVQLVESGGDLVKPGGSLRLSCVASGFTFSSHGMHWVRQSPGKGLQWVAVINAGGSSTYYTDAVKGRFTISRDNAKNTVYLQMNSLRAEDTAMYYCAKESVGGWEQLVGPHFDYWGQGTLVIVSS
VL: QSVLTQPTSVSGSLGQRVTISCSGSTNNIGILGASWYQLFPGKAPKLLVYGNGNRPSGVPDRFSGADSGDSVTLTITGLQAEDEADYYCQSFDTTLGAHVFGGGTHLTVL
[1]
  Percent Similarity Score (KD on rN): 99.9%
[2]
  Percent Similarity Score (KD on cN): 100%
[3]
  Percent Similarity Score (KD on hN): 100%
